Assay results as given in patent US20220144922A1 (Adimab, published 2022).
Positions count from the first letter of the chain named.

B1: ADI-15614 (antibody, V domains shown)
VH: EVQLLESGGGLVKPGGSLRLSCAASGFTISGYNMFWVRQPPGKGLEWVSSITAGSSYLNYADSVKGRFIVSRDNAKNSLYLQMNSLRAEDTAVYFCARAPLLPAMMDLWGQGTTVTVSS
VL: QSVLTQPPSVSGAPGQRVTISCTGSSSNIGAGYDVHWYQQLPGTAPKLLIYTNNNRPSGVPDRFSGSKSGTSASLAITGLQAEDEADYYCQSYDRSLNGYVFGTGTKLTVL
notes: IgG
B2: ADI-15623 (antibody, V domains shown)
VH: B1 VH with S30G
VL: B1 VL with L4V, K107Q
notes: IgG; also called Antibody Number 188

Tests used:
[1] = target: T1, prefusion-stabilized RSV F ectodomain (DS-Cav1), subtype B (respiratory syncytial virus subtype B); assay: BLI, IgG on sensor
T1 construct: extracellular domain; also called Prefusion subtype B

[2] = target: T2, RSV F protein of subtype A strain A2, on virus (respiratory syncytial virus subtype A …, UniProt P03420 26-574); assay: cell-based or functional assay
[3] = target: RSV F protein of subtype B strain 18537, on virus (respiratory syncytial virus subtype B …, UniProt P13843 26-574); assay: cell-based or functional assay
[4] = target: T2, RSV F protein of subtype A strain A2, …; assay: cell-based or functional assay; remark: listed apart in the source
[5] = target: HMPV F protein (NL/1/00, A1 sublineage), on virus (human metapneumovirus); assay: cell-based or functional assay

| Binder | Kd [1] | Neut IC50 (ug/ml) subtype A [2] | Neut IC50 (ug/ml) subtype B [3] | RSV-A2 IC50 [4] | HMPV-A1 IC50 [5] |
| --- | --- | --- | --- | --- | --- |
| B1 | 0.466 nM | 0.027 µg/mL | 0.059 µg/mL | 0.03 mg/L | 0.22 mg/L |
| B2 | 0.435 nM | 0.054 µg/mL | 0.108 µg/mL | 0.05 mg/L | 0.37 mg/L |
